Among the data in patent US7407766 are Kd values, retold here.

The assay concerns the target full-length mouse Plexin-A1 protein (aa1 to 1894) (mouse) (UniProt P70206). Nature of the assay: AP activity bound to Plexin-A1 expressing L cells, non-specific binding to parent L cells subtracted; Scatchard plot.

Sequence of full-length mouse Plexin-A1 protein (aa1 to 1894) (mouse) (P70206 28-1894 limits assumed): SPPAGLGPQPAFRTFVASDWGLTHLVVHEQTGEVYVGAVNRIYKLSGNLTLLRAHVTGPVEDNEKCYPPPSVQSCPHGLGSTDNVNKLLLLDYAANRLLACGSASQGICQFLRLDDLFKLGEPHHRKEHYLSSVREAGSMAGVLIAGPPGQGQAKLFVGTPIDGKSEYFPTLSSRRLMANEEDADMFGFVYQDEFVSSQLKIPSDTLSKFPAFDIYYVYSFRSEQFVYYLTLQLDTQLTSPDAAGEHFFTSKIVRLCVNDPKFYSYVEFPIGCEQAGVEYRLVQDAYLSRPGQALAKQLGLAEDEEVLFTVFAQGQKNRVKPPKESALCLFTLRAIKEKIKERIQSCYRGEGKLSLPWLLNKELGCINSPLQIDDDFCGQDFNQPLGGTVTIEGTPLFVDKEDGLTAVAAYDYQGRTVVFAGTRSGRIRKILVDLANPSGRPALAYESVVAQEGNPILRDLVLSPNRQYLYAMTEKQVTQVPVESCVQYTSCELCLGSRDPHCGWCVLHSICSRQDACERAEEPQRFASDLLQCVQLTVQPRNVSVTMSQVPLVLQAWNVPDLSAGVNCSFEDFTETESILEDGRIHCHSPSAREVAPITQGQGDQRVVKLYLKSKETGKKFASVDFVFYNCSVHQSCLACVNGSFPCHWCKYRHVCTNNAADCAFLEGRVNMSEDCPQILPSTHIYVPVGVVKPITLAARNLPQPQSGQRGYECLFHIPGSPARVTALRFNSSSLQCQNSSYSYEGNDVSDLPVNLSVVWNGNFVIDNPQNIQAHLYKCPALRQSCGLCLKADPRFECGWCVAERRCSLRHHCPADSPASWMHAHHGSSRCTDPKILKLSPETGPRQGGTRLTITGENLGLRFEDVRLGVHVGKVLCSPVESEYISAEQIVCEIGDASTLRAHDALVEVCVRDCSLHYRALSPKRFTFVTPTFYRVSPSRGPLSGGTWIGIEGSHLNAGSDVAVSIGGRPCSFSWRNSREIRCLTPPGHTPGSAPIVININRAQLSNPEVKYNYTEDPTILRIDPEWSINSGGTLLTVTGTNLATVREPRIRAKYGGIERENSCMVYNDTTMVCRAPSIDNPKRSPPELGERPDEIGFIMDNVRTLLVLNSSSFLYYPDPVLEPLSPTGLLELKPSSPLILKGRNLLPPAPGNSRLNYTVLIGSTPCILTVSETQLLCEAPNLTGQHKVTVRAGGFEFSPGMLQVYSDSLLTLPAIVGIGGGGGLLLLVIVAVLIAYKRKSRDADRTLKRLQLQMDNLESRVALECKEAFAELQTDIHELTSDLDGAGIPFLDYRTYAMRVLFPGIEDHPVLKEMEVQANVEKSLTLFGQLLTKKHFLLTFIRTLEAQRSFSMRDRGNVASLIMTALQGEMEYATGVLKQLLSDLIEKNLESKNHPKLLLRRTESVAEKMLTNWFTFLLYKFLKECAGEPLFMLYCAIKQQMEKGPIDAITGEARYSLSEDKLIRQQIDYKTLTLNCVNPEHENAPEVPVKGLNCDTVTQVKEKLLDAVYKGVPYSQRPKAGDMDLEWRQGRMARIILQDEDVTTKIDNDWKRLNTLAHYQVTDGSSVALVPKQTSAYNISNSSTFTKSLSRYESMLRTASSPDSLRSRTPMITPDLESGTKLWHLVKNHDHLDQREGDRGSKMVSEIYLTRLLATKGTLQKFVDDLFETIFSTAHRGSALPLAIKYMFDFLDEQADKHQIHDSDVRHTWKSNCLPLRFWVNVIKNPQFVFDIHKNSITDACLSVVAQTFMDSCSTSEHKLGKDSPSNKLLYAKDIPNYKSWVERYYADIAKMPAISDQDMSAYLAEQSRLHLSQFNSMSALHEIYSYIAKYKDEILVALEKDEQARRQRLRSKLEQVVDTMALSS

As a reminder, the Kd is the concentration at which binding is half-saturated. Take “Sema6C-alkaline phosphatase fusion protein (Sema6C-S-AP) (from UniProt Q9WTL3 24-599; P05187 23-511) (ligand)”: the dissociation constant (Kd) was 16.5 nM.
